Assays:
[1] = target: human 4-1BB on CHO-K1 cells (human) (UniProt Q07011); test: FACS; FIG. 25D
[2] = target: human 4-1BB on CHO-K1 cells (human) (UniProt Q07011); test: FACS; FIG. 25E
[3] = target: human 4-1BB on CHO-K1 cells (human) (UniProt Q07011); test: FACS; FIG. 25A
[4] = target: human 4-1BB on CHO-K1 cells (human) (UniProt Q07011); test: FACS; FIG. 25B
[5] = target: human 4-1BB on CHO-K1 cells (human) (UniProt Q07011); test: FACS; FIG. 25C
[6] = target: human 4-1BB on CHO-K1 cells (human) (UniProt Q07011); test: FACS; FIG. 11H
[7] = target: human 4-1BB on CHO-K1 cells (human) (UniProt Q07011); test: FACS; FIG. 11I
[8] = target: human 4-1BB on CHO-K1 cells (human) (UniProt Q07011); test: FACS; FIG. 11J
[9] = target: human 4-1BB on CHO-K1 cells (human) (UniProt Q07011); test: FACS blocking of 4-1BBL; FIG. 14F
[10] = target: human 4-1BB on CHO-K1 cells (human) (UniProt Q07011); test: FACS blocking of 4-1BBL; FIG. 14G
[11] = target: human 4-1BB on CHO-K1 cells (human) (UniProt Q07011); test: FACS blocking of 4-1BBL; FIG. 14H

Chain of human 4-1BB on CHO-K1 cells (human) (Q07011 24-255): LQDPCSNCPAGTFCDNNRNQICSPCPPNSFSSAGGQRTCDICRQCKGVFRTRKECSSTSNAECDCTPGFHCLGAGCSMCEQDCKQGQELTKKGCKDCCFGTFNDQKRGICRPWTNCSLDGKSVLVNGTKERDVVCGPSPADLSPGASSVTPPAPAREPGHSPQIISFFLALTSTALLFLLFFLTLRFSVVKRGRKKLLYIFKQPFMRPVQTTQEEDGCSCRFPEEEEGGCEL

- EC50 [1]: 653 pM
- EC50 [2]: 235 pM
- EC50 [3]: 1010 pM
- EC50 [4]: 347 pM
- EC50 [5]: 519 pM
- EC50 [6]: 683 pM
- EC50 [7]: 712 pM
- EC50 [8]: 486 pM
- IC50 [9]: 1270 pM
- IC50 [10]: 447 pM
- IC50 [11]: 232 pM
Substance: Urelumab

— patent US20230242658A1
